Measured values: the supplement of paper PMC9170038

Tested on: MS2 coat protein
Experiment: apparent KD of MS2 coat protein; designed switch direction (-1 OFF switch, 1 ON switch): -1; higher = weaker reporter binding
Outline: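 Designed RNA switches sharing common flanks were transcribed on Illumina chips by stalled E. coli RNA polymerase. They were titrated with SNAP-549-labelled MS2 coat protein, from 0.7 or 1.5 nM doubling to 3 µM, in Tris-HCl pH 7.5 buffer with KCl, MgCl2, BSA, DTT, tRNA and Tween-20. Titrations ran without input, with 200 uM small-molecule ligand, or with an oligonucleotide input. The apparent KD of each design is the median over its clusters, after curve-fitting of normalised cluster fluorescence.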

[1] = Eterna round: R95, input ligand: microRNA oligo, concentration not stated
[2] = input ligand: microRNA oligo, concentration not stated
[3] = Eterna round: R95, input ligand: FMN 200 uM
[4] = Eterna round: R95, input ligand: none

## CGUUGAUGAGGAUAUCGAUGUUAGUACAUGAGGAUCACCCAUGUUAUCCAAGUGUCGUUUCGAGAAGGUAUUGGAC [LRO-Ex5-20] (puzzle: Exclusion 5)
[1]
  apparent KD of MS2 coat protein: 0.174 µM

## CUAAACGCAGGAUAUACAUGAGGAUCACCCAUGUUUGGCCAGUAAACAAGUCGUCUUAGUAGAAGGGCGUUUAG [Eternabot (Original) Solution 42] (Eterna round: R97, puzzle: Exclusion 3)
Input ligand: FMN 200 uM
  apparent KD of MS2 coat protein: 0.544 µM
Input ligand: none
  apparent KD of MS2 coat protein: 0.0401 µM

## CUAAAUCAUGUAGGAUAUGCGUGGCAAAGCUAUGCAGAAGGACAUGAGGAUCACCCAUGUGCUUCCGUCUGAGAACAGACGGUA [Mat - Exclusion NG 1 - Mod of JL - D23] (Eterna round: R96, puzzle: Exclusion NG 1)
Input ligand: FMN 200 uM
  apparent KD of MS2 coat protein: 0.306 µM
[2]
  apparent KD of MS2 coat protein: 0.0496 µM
Input ligand: none
  apparent KD of MS2 coat protein: 0.0682 µM

## CUAAAUCAUGUAGGAUAUGCGUGGCGAAGCUAUGCAGAAGGACAUGAGGAUCACCCAUGUGCUUCCGUCUGAGUACAGACGGAA [Mat - Exclusion NG 1 - Mod of JL - D25] (Eterna round: R96, puzzle: Exclusion NG 1)
Input ligand: FMN 200 uM
  apparent KD of MS2 coat protein: 0.0772 µM
[2]
  apparent KD of MS2 coat protein: 0.16 µM
Input ligand: none
  apparent KD of MS2 coat protein: 0.232 µM

## CUAACAUGCUGGUGAUCAUACAUGAGGAUCACCCAUGUAACAAGCUUUUUGCUCGUCUUAAUUUAAUUGAUUACUAG [Stov1/8-A3] (Eterna round: R97, puzzle: Sensor, turn-off variant 1)
Input ligand: FMN 200 uM
  apparent KD of MS2 coat protein: 0.0889 µM
Input ligand: none
  apparent KD of MS2 coat protein: 0.113 µM

## CUAACGAAAGGAUAUAUGGCAUGAGACAUGAGGAUCACCCAUGUGAACCACCUACAGUACAUAGAAGGUUCGCUAG [Eternabot (Original) Solution 18] (Eterna round: R97, puzzle: Exclusion 5)
Input ligand: FMN 200 uM
  apparent KD of MS2 coat protein: 0.0659 µM
Input ligand: none
  apparent KD of MS2 coat protein: 0.0946 µM

## CUAAUACAUCAGGAUAUCUUAGCCUAUAGCAUAAGAGAAGGGAUGACAUGAGGAUCACCCAUGUCAAAGGGUGA [eternacac ex6r4 sub20] (Eterna round: R97, puzzle: Exclusion 6)
Input ligand: FMN 200 uM
  apparent KD of MS2 coat protein: 0.304 µM
Input ligand: none
  apparent KD of MS2 coat protein: 0.929 µM

## CUAAUAUAUCAGGAUAUGAUUAUAUGUGUUAGAUCAGAAGGGAUAACAUGAGGAUCACCCAUGUUGUGGAGUGA [JR_Ex6_Sub035] (Eterna round: R97, puzzle: Exclusion 6)
Input ligand: FMN 200 uM
  apparent KD of MS2 coat protein: 0.0673 µM
Input ligand: none
  apparent KD of MS2 coat protein: 0.0642 µM

## CUACCCUGAGGAUAUCCACCGUGAUACAUGAGGAUCACCCAUGUUAAUGCCUGAGUUCCCGGAGAAGGCAGAUUCC [Megrez2] (Eterna round: R97, puzzle: Exclusion 5)
Input ligand: FMN 200 uM
  apparent KD of MS2 coat protein: 0.0272 µM
Input ligand: none
  apparent KD of MS2 coat protein: 0.0305 µM

## CUAGAUCUUCGGAUCUAGUACAUGAGGAUCACCCAUGUGACGAGUAUAUCCUCAAACAAGCUUUUUGCUCGUCUUAU [Sensor v3 - Turn-off variant 1 - 21] (puzzle: Sensor v3, turn-off variant 1)
[3]
  apparent KD of MS2 coat protein: 0.243 µM
[1]
  apparent KD of MS2 coat protein: 0.237 µM
[4]
  apparent KD of MS2 coat protein: 0.172 µM

## CUAGCGAUUGUAGGAUAUCGGACUGUUUCAGUCUGAGAAGGACAUGAGGAUCACCCAUGUGAUGGAUCGUGAGAUCCACGCUAG [JL ENG1 3.80] (Eterna round: R96, puzzle: Exclusion NG 1)
Input ligand: FMN 200 uM
  apparent KD of MS2 coat protein: 0.195 µM
[2]
  apparent KD of MS2 coat protein: 0.0257 µM
Input ligand: none
  apparent KD of MS2 coat protein: 0.0279 µM

## CUAGCGAUUGUAGGAUAUCGGACUGUUUCAGUCUGAGAAGGACAUGAGGAUCACCCAUGUGGAGGAUCGUGAGAUCCACGCUAG [JL ENG1 3.81] (Eterna round: R96, puzzle: Exclusion NG 1)
Input ligand: FMN 200 uM
  apparent KD of MS2 coat protein: 0.137 µM
[2]
  apparent KD of MS2 coat protein: 0.0246 µM
Input ligand: none
  apparent KD of MS2 coat protein: 0.0345 µM

## CUAGGGCACAAUUAAGCGCCCUAACAUGAGGAUCACCCAUGUCAGGAUAUGUAGGCAAAGACCCUACAGAAGGGACAUGUCCUA [Artileza] (Eterna round: R96, puzzle: Exclusion NG 3)
Input ligand: FMN 200 uM
  apparent KD of MS2 coat protein: 0.393 µM
[2]
  apparent KD of MS2 coat protein: 0.0463 µM
Input ligand: none
  apparent KD of MS2 coat protein: 0.0692 µM

## CUAGUCCGAGGAUAUAUUAAGUGAAACAUGAGGAUCACCCAUGUUAUUUGAUGGAUGAAAAUAGAAGGCGGACUAG [Mat - Exclusion 5 - JL mod - D60] (puzzle: Exclusion 5)
[3]
  apparent KD of MS2 coat protein: 0.0278 µM
[1]
  apparent KD of MS2 coat protein: 0.0469 µM
[4]
  apparent KD of MS2 coat protein: 0.0585 µM

## CUAGUCCGAGGAUAUAUUAUGUGAAACAUGAGGAUCACCCAUGUAAUAUGAUGGAUGUAAAUAGAAGGCGGACUAG [Mat - Exclusion 5 - JL mod - D25] (puzzle: Exclusion 5)
[3]
  apparent KD of MS2 coat protein: 0.0379 µM
[1]
  apparent KD of MS2 coat protein: 0.0174 µM
[4]
  apparent KD of MS2 coat protein: 0.0361 µM

## CUAGUCCGAGGAUAUAUUAUGUGAUACAUGAGGAUCACCCAUGUUAUAUGAUGGAUAUUAAUAGAAGGCGGACUAG [Mat - Exclusion 5 - JL mod - D74] (puzzle: Exclusion 5)
[3]
  apparent KD of MS2 coat protein: 0.058 µM
[1]
  apparent KD of MS2 coat protein: 0.0683 µM
[4]
  apparent KD of MS2 coat protein: 0.088 µM

## CUAUAUUUAGGAUAUGUUCGGCUAGACAUGAGGAUCACCCAUGUGAGCCUAGGAGCAGCCACAGAAGGGAGUAUGU [Eternabot (L2) Solution 62] (Eterna round: R97, puzzle: Exclusion 5)
Input ligand: FMN 200 uM
  apparent KD of MS2 coat protein: 0.0276 µM
Input ligand: none
  apparent KD of MS2 coat protein: 0.0328 µM

## CUAUGAGCUGAGGAUAUCUGCAGGUUGGGCCUGGGAGAAGGCGGCACAUGAGGAUCACCCAUGUGACCGAAAUA [Mod2 Ex6 A.17 by Nando] (Eterna round: R97, puzzle: Exclusion 6)
Input ligand: FMN 200 uM
  apparent KD of MS2 coat protein: 0.0163 µM
Input ligand: none
  apparent KD of MS2 coat protein: 0.0127 µM

## CUAUGUUAGCAGGAUAUGCCAUUAUUCCUUUUCGCAGAAGGGCUUACAUGAGGAUCACCCAUGUUACAUUUCUU [JR_E6_Sub085] (puzzle: Exclusion 6)
[1]
  apparent KD of MS2 coat protein: 0.0133 µM

## CUAUUACGAGGAUAUGAUUUAAAUAACAUGAGGAUCACCCAUGUUUUUACGUUAUUAUGUUCAGAAGGCGUAUUGU [JR_E5_Sub025] (puzzle: Exclusion 5)
[1]
  apparent KD of MS2 coat protein: 0.028 µM

## CUAUUCCGAGGAUAUACAUGAGGAUCACCCAUGUCGGGCCUCUGCGUUUAGCGCGAAAGUAGAAGGUGGGUUUC [JL Riri mod 9] (Eterna round: R96, puzzle: Exclusion 3)
Input ligand: FMN 200 uM
  apparent KD of MS2 coat protein: 0.0355 µM
[2]
  apparent KD of MS2 coat protein: 0.0268 µM
Input ligand: none
  apparent KD of MS2 coat protein: 0.032 µM

## CUAUUCCGAGGAUAUACAUGAGGAUCACCCAUGUCGGGCCUCUGCGUUUAGCGCGAAAGUAGAAGGUGGGUUUC [JL Riri mod 9] (puzzle: Exclusion 3)
[1]
  apparent KD of MS2 coat protein: 0.0283 µM

## CUAUUGGCAGGAUAUGCUUUUUUUGACAUGAGGAUCACCCAUGUGAUGCAUUUUGGGUUUGCAGAAGGGCCUGAGU [JR_E5_Sub037] (puzzle: Exclusion 5)
[1]
  apparent KD of MS2 coat protein: 0.0649 µM

## CUAUUGUGAGGAUAUCAGUAGUAAUACAAUAGUAUUACUACUGAGAAGGCACAUGAGGAUCACCCAUGUUCCUU [Mat - Exclusion 4 - Mod of Omei - D76] (puzzle: Exclusion 4)
[1]
  apparent KD of MS2 coat protein: 0.0144 µM

## CUCAUGUGAGGAUAUAGUGCGUCUUCUAUUAUUAUUGAGUACUAGAAGGCACAUGAGGAUCACCCAUGUAGCAC [Ex4 - 3 - 45] (Eterna round: R96, puzzle: Exclusion 4)
[2]
  apparent KD of MS2 coat protein: 0.0292 µM
Input ligand: none
  apparent KD of MS2 coat protein: 0.0576 µM

## CUCAUGUGAGGAUAUAGUGCGUCUUCUAUUAUUAUUGAGUACUAGAAGGCACAUGAGGAUCACCCAUGUAGCAC [Ex4 - 3 - 45] (puzzle: Exclusion 4)
[1]
  apparent KD of MS2 coat protein: 0.0419 µM

## CUCAUGUGUGAGGAUAUUAGAGCGAGCGUGUGAUAAGAAGGCACAACAUGAGGAUCACCCAUGUAGAGAGAGUG [Alacar 1st] (Eterna round: R97, puzzle: Exclusion 6)
Input ligand: FMN 200 uM
  apparent KD of MS2 coat protein: 0.0289 µM
Input ligand: none
  apparent KD of MS2 coat protein: 0.0696 µM

## CUCAUGUUGGAGGAUAUAUUUGUCAACCGACCGAUAGAAGGCCACACAUGAGGAUCACCCAUGUCAUCCGGAGA [Eternabot (Original) Solution 50] (Eterna round: R97, puzzle: Exclusion 6)
Input ligand: FMN 200 uM
  apparent KD of MS2 coat protein: 0.0283 µM
Input ligand: none
  apparent KD of MS2 coat protein: 0.255 µM

## CUCCUACAUGAGGAUCACCCAUGUCAGGAUAUCUCAGUGGCGCCUAAAUGUGCCACCCAGAGAAGGGACGUGCA [Zainceve] (puzzle: Exclusion 1)
[1]
  apparent KD of MS2 coat protein: 0.0123 µM

## CUCCUCAUGGCGCCUAAACACAUGAGGAUCACCCAUGUACAGGCUUCUUGCCGUCUUAUAAUAAAACCGAGGAUGCG [Onleorqula] (puzzle: Sensor v3, turn-off variant 1)
[3]
  apparent KD of MS2 coat protein: 0.0438 µM
[1]
  apparent KD of MS2 coat protein: 0.283 µM
[4]
  apparent KD of MS2 coat protein: 0.0473 µM

## CUCCUCGCUUAGGAUAUGUACACUUGCACCGUGACAGAAGGAAGCACUUGAGGAUCACCCAAGUGCCAGGGUGC [Geena] (Eterna round: R97, puzzle: Exclusion 6)
Input ligand: FMN 200 uM
  apparent KD of MS2 coat protein: 0.0144 µM
Input ligand: none
  apparent KD of MS2 coat protein: 0.0167 µM

## CUCCUCGUGGCGCCUAAACACAUGAGGAUCACCCAUGUACAGGCUUUUUGCCGUCUUAUAAUAAAACCGAGGAGACG [Ataesarxe] (puzzle: Sensor v3, turn-off variant 1)
[3]
  apparent KD of MS2 coat protein: 0.0166 µM
[1]
  apparent KD of MS2 coat protein: 0.0188 µM
[4]
  apparent KD of MS2 coat protein: 0.0166 µM
